The values below come from patent publication US20240117074A1 (published 2024).

For experiment [1], the target named is T1, human CEACAM5, recombinant soluble (hCEACAM-5, R&D Systems #4128-CM-050) (human, UniProt P06731 35-685).
T1 construct: Bought protein; also called Human CEACAM5-His; monomeric human CEACAM5-His
T1 sequence (looked up): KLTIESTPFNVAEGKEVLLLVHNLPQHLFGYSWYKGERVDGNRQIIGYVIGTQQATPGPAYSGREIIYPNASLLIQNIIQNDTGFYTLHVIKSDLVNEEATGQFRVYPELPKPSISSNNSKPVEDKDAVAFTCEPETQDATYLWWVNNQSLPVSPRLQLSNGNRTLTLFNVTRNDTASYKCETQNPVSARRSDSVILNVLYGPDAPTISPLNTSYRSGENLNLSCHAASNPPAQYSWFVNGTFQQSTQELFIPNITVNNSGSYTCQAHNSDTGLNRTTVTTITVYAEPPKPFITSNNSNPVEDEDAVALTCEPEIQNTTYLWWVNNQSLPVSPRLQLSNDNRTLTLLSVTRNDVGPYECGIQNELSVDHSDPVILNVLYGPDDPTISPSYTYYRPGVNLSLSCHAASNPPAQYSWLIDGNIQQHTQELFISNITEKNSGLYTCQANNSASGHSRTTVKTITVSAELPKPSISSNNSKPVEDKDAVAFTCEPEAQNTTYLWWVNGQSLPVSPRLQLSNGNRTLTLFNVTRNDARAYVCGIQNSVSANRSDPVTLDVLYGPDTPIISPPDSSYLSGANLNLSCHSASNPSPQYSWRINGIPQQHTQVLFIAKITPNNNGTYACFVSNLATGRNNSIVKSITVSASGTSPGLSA
The experiment in a line: dual target ELISA: CEACAM5 coated, biotinylated hCD40-muIg detection. The method, then:
ELISA plates were coated with human EpCAM, bsAb was added followed by detection using goat anti human-kappa light chain-HRP.
96-well plates were coated with 0.5 μg/mL antigen, hCEACAM-1 (2244-CM-050, R&D Systems), hCEACAM-5 (4128-CM-050, R&D Systems), hCEACAM-6 (3934-CM-050, R&D Systems) or CEACAM-8 (9639-CM-050, R&D Systems) in PBS over night at 4° C. After washing in PBS/0.05% Tween 20 (PBST), the plates were blocked with PBST, 2% BSA for at least 30 minutes at room temperature before a second round of washing. RUBY bsAbs, diluted in PBST, 0.5% BSA, were then added and allowed to bind for at least 1 hour at room temperature. […] Finally, a final round of washing was performed and bound complexes detected using SuperSignal Pico Luminescent as substrate and luminescence signals were measured using Fluostar Optima.
(In general: An ELISA detects its analyte on a solid surface through an enzyme-linked reagent.)

Experiment [2] has as its target T2, biotinylated human CD40-mouse Fc (Ancell #504-030) (human, UniProt P25942 21-193, biotinylated).
T2 construct: Bought fusion protein; also called hCD40-muIg; CD40mFc-biotin; not shown: mouse Ig Fc of the bought fusion protein
The experiment in a line: Octet BLI, captured CD40mFc-biotin, bsAb in solution. On the technique in general: In BLI a coated tip is dipped into the sample, and binding shifts an interference pattern.

Experiment [3] deals with T1, human CEACAM5, recombinant soluble …. The experiment in a line: Octet BLI, captured bsAb, soluble antigen.
The target of experiment [4] is CD40 expressed on cells (CD40 reporter cells, HEK Blue CD40L cells, primary B cells, tumor APCs) (human, UniProt P25942 21-277). The experiment in a line: cell-based or functional assay.
CD40 expressed on cells (CD40 reporter cells, HEK Blue CD40L cells, primary B cells, tumor APCs), sequence (P25942 21-277): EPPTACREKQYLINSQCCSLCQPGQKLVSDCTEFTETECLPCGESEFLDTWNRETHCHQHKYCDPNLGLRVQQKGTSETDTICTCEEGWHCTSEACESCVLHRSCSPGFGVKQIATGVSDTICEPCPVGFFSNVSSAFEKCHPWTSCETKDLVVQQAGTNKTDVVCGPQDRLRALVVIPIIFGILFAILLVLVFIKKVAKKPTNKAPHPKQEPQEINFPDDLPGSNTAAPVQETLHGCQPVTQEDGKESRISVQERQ
Experiment [5] has as its target T1, human CEACAM5, recombinant soluble …. The experiment in a line: Octet BLI, captured bsAb, monomeric CEACAM5 in solution.
The target of experiment [6] is T3, monomeric Cynomolgus CEACAM5-His (Sino Biological #90891-C08H) (cynomolgus).
T3 chain: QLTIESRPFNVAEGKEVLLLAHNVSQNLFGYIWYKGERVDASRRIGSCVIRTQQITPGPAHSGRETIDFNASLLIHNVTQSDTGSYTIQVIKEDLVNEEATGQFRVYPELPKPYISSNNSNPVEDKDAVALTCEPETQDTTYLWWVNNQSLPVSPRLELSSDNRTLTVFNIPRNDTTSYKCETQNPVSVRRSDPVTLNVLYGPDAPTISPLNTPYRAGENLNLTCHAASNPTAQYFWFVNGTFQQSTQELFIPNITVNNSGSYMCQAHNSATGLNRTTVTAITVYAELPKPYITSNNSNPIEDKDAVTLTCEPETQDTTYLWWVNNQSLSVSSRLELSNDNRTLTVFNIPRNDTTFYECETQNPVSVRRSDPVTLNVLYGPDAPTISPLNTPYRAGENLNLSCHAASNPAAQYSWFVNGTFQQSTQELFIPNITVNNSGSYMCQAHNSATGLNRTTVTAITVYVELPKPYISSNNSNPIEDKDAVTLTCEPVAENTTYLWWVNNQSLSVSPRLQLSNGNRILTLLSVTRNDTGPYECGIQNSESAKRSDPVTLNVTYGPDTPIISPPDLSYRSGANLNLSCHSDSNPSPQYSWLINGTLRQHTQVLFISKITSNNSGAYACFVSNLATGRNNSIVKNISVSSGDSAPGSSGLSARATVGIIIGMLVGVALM
The experiment in a line: Octet BLI, captured bsAb, soluble antigen.

T2 sequence (P25942 21-193): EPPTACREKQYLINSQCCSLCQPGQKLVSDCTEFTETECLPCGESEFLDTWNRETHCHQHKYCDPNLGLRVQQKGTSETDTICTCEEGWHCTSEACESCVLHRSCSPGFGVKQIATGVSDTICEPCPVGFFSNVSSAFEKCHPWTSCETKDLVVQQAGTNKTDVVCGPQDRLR

B1: Multi39 (bispecific antibody)
heavy 1: not shown
light: not shown
heavy 2: EVQLLESGGGLVQPGGSLRLSCAASGFTFYDHAMSWVREAPGKGLEWVSAISGSYGSTGYADSVKGRFTISRDNSKNTLYLQMNSLRAEDTAVYYCARWGGWAGDIDYWGQGTLVTVSSASTKGPSVFPLAPSSKSTSGGTAALGCLVKDYFPEPVTVSWNSGALTSGVHTFPAVLQSSGLYSLTSVVEVPSSSLGTQTYICNVNHKPSNTKVDKKVEPKSC
notes: copies: 2 + 2 + 2
For the molecule B1, the binding result in experiment [1] was “binds”.

B2: AC_05293 (bispecific antibody)
chain 1: EVQLLESGGGLVQPGGSLRLSCAASGFTFSSYAMSWVRQAPGKGLEWVSGIGSYGGGTYYADSVKGRFTISRDNSKNTLYLQMNSLRAEDTAVYYCARYVNFGMDYWGQGTLVTVSS
chain 2: DIQMTQSPSSLSASVGDRVTITCRASQSISSYLNWYQQKPGKAPKLLIYAASSLQSGVPSRFSGSGSGTDFTLTISSLQPEDFATYYCQQYGRNPPTFGQGTKLEIK
chain 3: EVQLLEQSGAELVRPGTSVKISCKASGYAFTNYWLGWVKQRPGHGLEWIGDIFPGSGNIHYNEKFKGKATLTADKSSSTAYMQLSSLTFEDSAVYFCARLRNWDEPMDYWGQGTTVTVSS
chain 4: ELVMTQSPSSLTVTAGEKVTMSCKSSQSLLNSGNQKNYLTWYQQKPGQPPKLLIYWASTRESGVPDRFTGSGSGTDFTLTISSVQAEDLAVYYCQNDYSYPLTFGAGTKLEIK
As a reminder, the Kd is the concentration at which binding is half-saturated. By koff is commonly meant the rate constant with which the complex falls apart. The term kon denotes the rate constant with which the complex forms. In experiment [2], B2 displayed a Kd of 76000 pM, a dissociation rate constant (koff) of 0.00062 s⁻¹ and a kon of 8300 M⁻¹ s⁻¹.

B3: AC_05330 (bispecific antibody)
chain 1: EVQLLESGGGLVQPGGSLRLSCAASGFTFSTYGMHWVRQAPGKGLEWLSYISGGSSYIFYADSVRGRFTISRDNSENALYLQMNSLRAEDTAVYYCARILRGGSGMDLWGQGTLVTVSS
chain 2: QSVLTQPPSASGTPGQRVTISCTGSSSNIGAGYNVYWYQQLPGTAPKLLIYGNINRPSGVPDRFSGSKSGTSASLAISGLRSEDEADYYCAAWDKSISGLVFGGGTKLTVLG
chain 3: not shown
chain 4: DIQMTQSPSSLSASVGDRVTITCRASQSISSYLNWYQQKPGKAPKLLIYAASSLQSGVPSRFSGSGSGTDFTLTISSLQPEDFATYYCQQTYGYLHTFGQGTKLEIK
In experiment [2], B3 yielded a dissociation constant (Kd) of 450 pM, a koff of 1.6e-05 s⁻¹ and a kon of 35000 M⁻¹ s⁻¹.

B4: AC_05300 (bispecific antibody)
chain 1: EVQLLEQSGAELVRPGTSVKISCKASGYAFTNYWLGWVKQRPGHGLEWIGDIFPGSGNIHYNEKFKGKATLTADKSSSTAYMQLSSLTFEDSAVYFCARLRNWDEPMDYWGQGTTVTVSS
chain 2: ELVMTQSPSSLTVTAGEKVTMSCKSSQSLLNSGNQKNYLTWYQQKPGQPPKLLIYWASTRESGVPDRFTGSGSGTDFTLTISSVQAEDLAVYYCQNDYSYPLTFGAGTKLEIK
chain 3: EVQLLESGGGLVQPGGSLRLSCAASGFTFSSYAMSWVRQAPGKGLEWVSGIGSYGGGTYYADSVKGRFTISRDNSKNTLYLQMNSLRAEDTAVYYCARYVNFGMDYWGQGTLVTVSS
chain 4: DIQMTQSPSSLSASVGDRVTITCRASQSISSYLNWYQQKPGKAPKLLIYAASSLQSGVPSRFSGSGSGTDFTLTISSLQPEDFATYYCQQYGRNPPTFGQGTKLEIK
On to B4, for which, in experiment [2], the Kd amounted to 8500 pM, the koff was 0.0046 s⁻¹ and the kon was determined as 540000 M⁻¹ s⁻¹.

B5: AC_05331 (bispecific antibody)
chain 1: not shown
chain 2: DIQMTQSPSSLSASVGDRVTITCRASQSISSYLNWYQQKPGKAPKLLIYAASSLQSGVPSRFSGSGSGTDFTLTISSLQPEDFATYYCQQTYGYLHTFGQGTKLEIK
chain 3: EVQLLESGGGLVQPGGSLRLSCAASGFTFSTYGMHWVRQAPGKGLEWLSYISGGSSYIFYADSVRGRFTISRDNSENALYLQMNSLRAEDTAVYYCARILRGGSGMDLWGQGTLVTVSS
chain 4: QSVLTQPPSASGTPGQRVTISCTGSSSNIGAGYNVYWYQQLPGTAPKLLIYGNINRPSGVPDRFSGSKSGTSASLAISGLRSEDEADYYCAAWDKSISGLVFGGGTKLTVLG
Consider B5, for which, in experiment [2], the dissociation constant (Kd) was 230 pM, the koff worked out at 8.1e-06 s⁻¹ and the kon was 36000 M⁻¹ s⁻¹.

B6: AC_05339 (bispecific antibody)
chain 1: not shown
chain 2: DIQMTQSPSSLSASVGDRVTITCRASQSISSYLNWYQEKPGKAPKLLIYAASSLQSGVPSRFSGSGSGTDFTLTISSLQPEDFATYYCQQAGNPHTFGQGTKLEIKRTVAAPSVFIFPPSDEQLKSGTASVVCYLNNFYPREAKVQWKVDNALQSGNSQESVTEQDSKDSTYSLWSTLTLSKADYEKHKVYACEVTHQGLSSPVTKSFNRGEC
chain 3: EVQLLESGGGLVQPGGSLRLSCAASGFTFSTYGMHWVREAPGKGLEWLSYISGGSSYIFYADSVKGRFTISRDNSKNTLYLQMNSLRAEDTAVYYCARILRGGSGMDLWGQGTLVTVSSASTKGPSVFPLAPSSKSTSGGTAALGCLVKDYFPEPVTVSWNSGALTSGVHTFPAVLQSSGLYSLTSVVEVPSSSLGTQTYICNVNHKPSNTKVDKKVEPKSC
Turning to B6, in experiment [3], the Kd was below 1 pM, the koff was below 1e-07 s⁻¹ and the kon stood at 520000 M⁻¹ s⁻¹. Besides, in experiment [4], the “EC50 of HEK Blue CD40L reporter activation (SEAP), CHO-CEACAM5 crosslinking, 0 Raji sink cells/well” value turned out to be 30 pM; the “EC50 of HEK Blue CD40L reporter activation (SEAP), CHO-CEACAM5 crosslinking, 10 000 Raji sink cells/well” value was found to be 50 pM; the “EC50 of HEK Blue CD40L reporter activation (SEAP), CHO-CEACAM5 crosslinking, 30 000 Raji sink cells/well” value was found to be 80 pM; the “EC50 of HEK Blue CD40L reporter activation (SEAP), CHO-CEACAM5 crosslinking, 90 000 Raji sink cells/well” value stood at 230 pM. For the same molecule, in experiment [5], the Kd came to 1800 pM, the koff came to 0.00042 s⁻¹ and the kon worked out at 240000 M⁻¹ s⁻¹.

B7: AC_05355 (bispecific antibody)
chain 1: not shown
chain 2: DIQMTQSPSSLSASVGDRVTITCRASENIFSYLAWYQEKPGKAPKLLIYNTRTLQSGVPSRFSGSGSGTDFTLTISSLQPEDFATYYCQHHYGTPFTFGQGTKLEIKRTVAAPSVFIFPPSDEQLKSGTASVVCYLNNFYPREAKVQWKVDNALQSGNSQESVTEQDSKDSTYSLWSTLTLSKADYEKHKVYACEVTHQGLSSPVTKSFNRGEC
chain 3: EVQLLESGGGLVQPGGSLRLSCAASGFTFSTYGMHWVREAPGKGLEWLSYISGGSSYIFYADSVKGRFTISRDNSKNTLYLQMNSLRAEDTAVYYCARILRGGSGMDLWGQGTLVTVSSASTKGPSVFPLAPSSKSTSGGTAALGCLVKDYFPEPVTVSWNSGALTSGVHTFPAVLQSSGLYSLTSVVEVPSSSLGTQTYICNVNHKPSNTKVDKKVEPKSC
With B7, in experiment [3], the Kd stood at 1000 pM, the koff is 0.00053 s⁻¹ and the on-rate constant (kon) turned out to be 510000 M⁻¹ s⁻¹. In experiment [6], this molecule registered a Kd of 20000 pM, a dissociation rate constant (koff) of 0.0038 s⁻¹ and an on-rate constant (kon) of 190000 M⁻¹ s⁻¹.
